Test results as given in patent publication EP0311107A2, “Anti-HIV active 3'-fluoro-purine-2',3'-dideoxyribosides” (priority 1987, dated 1989).

Assays:
[1] = substrate: Nc1nc(N)c2ncn([C@H]3C[C@@H](O)[C@@H](CO)O3)c2n1; assay: Substrate kinetics for deamination by adenosine deaminase; type: biochemical; conditions: other: beef intestine adenosine deaminase
Excerpt: (§1) All four ddDAPR analogues were examined for their sus­ceptibility to deamination by beef intestine adenosine de­ aminase (ADA).

[2] = substrate: Nc1nc(N)c2ncn([C@H]3C[C@H](F)[C@@H](CO)O3)c2n1; assay: as above; type: biochemical; conditions: other: beef intestine adenosine deaminase
Excerpt: as §1

B1: beef intestine adenosine deaminase (ADA) (Bos taurus) (protein)
chain: MAQTPAFNKPKVELHVHLDGAIKPETILYYGRKRGIALPADTPEELQNIIGMDKPLSLPEFLAKFDYYMPAIAGCREAVKRIAYEFVEMKAKDGVVYVEVRYSPHLLANSKVEPIPWNQAEGDLTPDEVVSLVNQGLQEGERDFGVKVRSILCCMRHQPSWSSEVVELCKKYREQTVVAIDLAGDETIEGSSLFPGHVKAYAEAVKSGVHRTVHAGEVGSANVVKEAVDTLKTERLGHGYHTLEDATLYNRLRQENMHFEVCPWSSYLTGAWKPDTEHPVVRFKNDQVNYSLNTDDPLIFKSTLDTDYQMTKNEMGFTEEEFKRLNINAAKSSFLPEDEKKELLDLLYKAYGMPSPASAEQCL
notes: Kinetic properties of beef intestine adenosine deaminase for 2,6-diaminopurine 2′,3′-dideoxynucleoside analogues; purchased Boehringer Mannheim, Mannheim, West Germany; host or cells: beef intestine (tissue-derived enzyme)
Km [1]: 74 µM
Km [2]: 148 µM
Vmax [2]: 31 µmole/mg protein/min
